First the molecules themselves.
B1: I-19 (peptide)
peptide: Ac-[PL3]D[tBuAla][B5(4)]D[Phe(3-COOH)]AAF[TriAzLys″][PyrS2″][3Thi][Bta][sAla]-NH2
modifications: triazole 10-14; not fully specified (bridges); printed as Ac-PL3-Asp-Npg-B5-Asp-3COOHF-Ala-Ala-Phe-TriAzLys*3-PyrS2-3Thi-BztA-sAla*3-NH2; reading uncertain
B2: I-11 (peptide)
peptide: Ac-[PL3]DL[B5]D[Phe(3-COOH)]AAFK[PyrS2(4)][3Thi][Bta][GlnR]-NH2
modifications: staple 1-4; bridge 10-14; reading uncertain; also: PyrS2 tied into a staple, partner not placed, printed as Ac-PL3-Asp-Leu-B5-Asp-3COOHF-Ala-Ala-Phe-Lys*3-PyrS2-3Thi-BztA-GlnR*3-NH2
B3: I-138 (peptide)
peptide: Ac-[αAllylPro]D[tBuAla][B5]D[Phe(3-COOH)][Aib]AFK[PyrS2″][2F3MeF″][BztA″][GlnR]LS-NH2
modifications: bridge 10-14; not fully specified (bridges); printed as Ac-PL3-Asp-Npg-B5-Asp-3COOHF-Aib-Ala-Phe-Lys*3-PyrS2-2F3MeF-BztA-GlnR*3-Leu-Ser-NH2; reading uncertain; also: Lys10 and GlnR14 marked *3
B4: I-5 (peptide)
peptide: XDLXDDAAFQXXXK
modifications: not fully specified; Ac-PL3-Asp-Leu-B5-Asp-Asp-Ala-Ala-Phe-DGlnR*3-PyrS2-3Thi-BztA-Lys*3-NH2
B5: I-144 (peptide)
peptide: Ac-[αAllylPro]N[tBuAla][B5]D[Phe(3-COOH)][Aib]AFK[PyrS2″][2F3MeF″][BztA″][GlnR]LS-NH2
modifications: bridge 10-14; not fully specified (bridges); printed as Ac-PL3-Asn-Npg-B5-Asp-3COOHF-Aib-Ala-Phe-Lys*3-PyrS2-2F3MeF-BztA-GlnR*3-Leu-Ser-NH2; reading uncertain; also: Lys10 and GlnR14 marked *3
B6: I-470 (peptide)
peptide: Ac-[αAllylPro]E[tBuAla][B5(5)]E[Phe(3-COOH)][Aib]AFK[PyrS2(5)][3Thi][Bta][GlnR]A-NH2
modifications: bridge 10-14; not fully specified (bridges); printed as Ac-PL3-Glu-Npg-B5-Glu-3COOHF-Aib-Ala-Phe-Lys*3-PyrS2-3Thi-BztA-GlnR*3-Ala-NH2; reading uncertain
B7: I-16 (peptide)
peptide: Ac-[αAllylPro]DL[B5″]D[Phe(3-COOH)]AAF[GlnR][PyrS2″][3Thi][Bta]K-NH2
modifications: bridge 10-14; reading uncertain; also: PL3-B5 and PyrS2 links not placed, printed as Ac-PL3-Asp-Leu-B5-Asp-3COOHF-Ala-Ala-Phe-GlnR*3-PyrS2-3Thi-BztA-Lys*3-NH2
B8: I-139 (peptide)
peptide: Ac-[αAllylPro]D[tBuAla][B5]D[Phe(3-COOH)][Cpg]AFK[PyrS2″][2F3MeF″][BztA″][GlnR]LS-NH2
modifications: bridge 10-14; not fully specified (bridges); printed as Ac-PL3-Asp-Npg-B5-Asp-3COOHF-Cpg-Ala-Phe-Lys*3-PyrS2-2F3MeF-BztA-GlnR*3-Leu-Ser-NH2; reading uncertain; also: Lys10 and GlnR14 marked *3
B9: I-12 (peptide)
peptide: Ac-[αAllylPro]DL[B5″]D[Phe(3-COOH)]AAFK[PyrS2″][3Thi][Bta][GlnR]-NH2
modifications: bridge 10-14; not fully specified (bridges); printed as Ac-PL3-Asp-Leu-B5-Asp-3COOHF-Ala-Ala-Phe-Lys*3-PyrS2-3Thi-BztA-GlnR*3-NH2; reading uncertain; also: Lys*3 and GlnR*3 marked *3
B10: I-140 (peptide)
peptide: Ac-[αAllylPro]D[tBuAla][B5]D[Phe(3-COOH)][Gly(cBu)]AFK[PyrS2″][2F3MeF″][BztA″][GlnR]LS-NH2
modifications: bridge 10-14; not fully specified (bridges); printed as Ac-PL3-Asp-Npg-B5-Asp-3COOHF-Cbg-Ala-Phe-Lys*3-PyrS2-2F3MeF-BztA-GlnR*3-Leu-Ser-NH2; reading uncertain; also: Lys10 and GlnR14 marked *3
B11: I-13 (peptide)
peptide: Ac-[αAllylPro]DL[B5(4)]D[Phe(3-COOH)]AAF[dGlnR][PyrS2″][3Thi][Bta]K-NH2
modifications: bridge 10-14; not fully specified (bridges); printed as Ac-PL3-Asp-Leu-B5-Asp-3COOHF-Ala-Ala-Phe-DGlnR*3-PyrS2-3Thi-BztA-Lys*3-NH2; reading uncertain; also: DGlnR*3 and Lys*3 marked *3
B12: I-14 (peptide)
peptide: Ac-[αAllylPro]DL[B5(4)]D[Phe(3-COOH)]AAF[dGlnR][PyrS2(5)][3Thi][Bta]K-NH2
modifications: bridge 10-14; not fully specified (bridges); printed as Ac-PL3-Asp-Leu-B5-Asp-3COOHF-Ala-Ala-Phe-DGlnR*3-PyrS2-3Thi-BztA-Lys*3-NH2; reading uncertain; also: DGlnR10 and Lys14 marked *3
B13: I-10 (peptide)
peptide: Ac-[PL3]DL[B5]D[Phe(3-COOH)]AAFK[PyrS2(4)][3Thi][Bta][GlnR]-NH2
modifications: staple 1-4; bridge 10-14; not fully specified (residue 10); printed as Ac-PL3-Asp-Leu-B5-Asp-3COOHF-Ala-Ala-Phe-dLys*3-PyrS2-3Thi-BztA-GlnR*3-NH2; reading uncertain; also: PyrS2 tied into a staple, partner not placed
B14: I-15 (peptide)
peptide: Ac-[αAllylPro]DL[B5″]D[Phe(3-COOH)]AAF[GlnR][PyrS2″][3Thi][Bta]K-NH2
modifications: bridge 10-14; reading uncertain; also: PL3-B5 and PyrS2 links not placed, printed as Ac-PL3-Asp-Leu-B5-Asp-3COOHF-Ala-Ala-Phe-GlnR*3-PyrS2-3Thi-BztA-Lys*3-NH2
B15: I-7 (peptide)
peptide: Ac-[αAllylPro]DL[B5(3)]DDKAF[GlnR][PyrS2(3)][3Thi][Bta]Q-NH2
modifications: bridge 7-10; not fully specified (bridges); printed as Ac-PL3-Asp-Leu-B5-Asp-Asp-Lys*3-Ala-Phe-GlnR*3-PyrS2-3Thi-BztA-Gln-NH2; reading uncertain
B16: I-8 (peptide)
peptide: XDLXDDQAFKXXXQ
modifications: not fully specified; Ac-PL3-Asp-Leu-B5-Asp-Asp-GlnR*3-Ala-Phe-Lys*3-PyrS2-3Thi-BztA-Gln-NH2
B17: I-141 (peptide)
peptide: Ac-[αAllylPro]D[tBuAla][B5]D[Phe(3-COOH)][CyLeu]AFK[PyrS2″][2F3MeF″][BztA″][GlnR]LS-NH2
modifications: bridge 10-14; not fully specified (bridges); printed as Ac-PL3-Asp-Npg-B5-Asp-3COOHF-CyLeu-Ala-Phe-Lys*3-PyrS2-2F3MeF-BztA-GlnR*3-Leu-Ser-NH2; reading uncertain; also: Lys10 and GlnR14 marked *3
B18: I-21 (peptide)
peptide: Ac-[PL3]D[tBuAla][B5(4)]D[Phe(3-COOH)]AAF[TriAzLys″][PyrS2″][2F3MeF][Bta][sAla]-NH2
modifications: triazole 10-14; not fully specified (bridges); printed as Ac-PL3-Asp-Npg-B5-Asp-3COOHF-Ala-Ala-Phe-TriAzLys*3-PyrS2-2F3MeF-BztA-sAla*3-NH2; reading uncertain
B19: I-6 (peptide)
peptide: XDLXDDAAFQXXXK
modifications: not fully specified; Ac-PL3-Asp-Leu-B5-Asp-Asp-Ala-Ala-Phe-GlnR*3-PyrS2-3Thi-BztA-Lys*3-NH2

This is an account of results in US20260207704A1, “STAPLED PEPTIDES AND METHODS THEREOF” (priority 2022, published 2026).

*1 amine or outer side, *2 acyl side, *3 side chain or, on linkers, in order; H or OH if unused. Bridges are numbered along the chain shown (N, C = ends). Primed or numbered codes have the meaning given here. [ ]: non-standard residue; d: D form. B5(4) = 2-amino-2-(pent-4-en-1-yl)hept-6-enoic acid, stapled through each of its two olefin groups with other olefin-containing amino acid residues, O=C(C(CCCC=[*:3])(CCCC=[*:4])N[*:1])[*:2]; PyrS2″ = (S)-3-amino-1-((pent-4-en-1-yloxy)carbonyl)pyrrolidine-3-carboxylic acid (olefin stapling residue), C=CCCCOC(=O)N1CC[C@@](N[*:1])(C(=O)[*:2])C1; PyrS2(3) = (S)-3-amino-1-((pent-4-en-1-yloxy)carbonyl)pyrrolidine-3-carboxylic acid, olefin residue, C=CCCCOC(=O)N1CC[C@@](N[*:1])(C(=O)[*:2])C1; TriAzLys = (S)-2-amino-5-(1H-1,2,3-triazol-1-yl)pentanoic acid, stapled through triazole 4-position, O=C([C@H](CCCn1cc([*:3])nn1)N[*:1])[*:2]; PyrS2(5) = (S)-3-amino-1-((pent-4-en-1-yloxy)carbonyl)pyrrolidine-3-carboxylic acid, C=CCCCOC(=O)N1CC[C@@](N[*:1])(C(=O)[*:2])C1; B5″ = 2-amino-2-(pent-4-en-1-yl)hept-6-enoic acid (bis-olefin stapling residue), C=CCCCC(CCCC=C)(N[*:1])C(=O)[*:2]; B5(5) = 2-amino-2-(pent-4-en-1-yl)hept-6-enoic acid (two olefin arms), C=CCCCC(CCCC=C)(N[*:1])C(=O)[*:2]; B5(3) = 2-amino-2-(pent-4-en-1-yl)hept-6-enoic acid, two olefin arms, C=CCCCC(CCCC=C)(N[*:1])C(=O)[*:2]; TriAzLys″ = azidolysine residue closed into triazole staple, O=C([C@H](CCCCn1cc([*:3])nn1)N[*:1])[*:2]; 2F3MeF″ = aromatic residue, Cc1cccc(C[C@H](N[*:1])C(=O)[*:2])c1F; Phe(3-COOH) = N[C@@H](Cc1cccc(C(=O)O)c1)C(=O)O; 2F3MeF = Cc1cccc(C[C@H](N[*:1])C(=O)[*:2])c1F; Abu(4-yl) = O=C([C@H](CC[*:3])N[*:1])[*:2]; Bta = N[C@@H](Cc1csc2ccccc12)C(=O)O; αAllylPro = C=CC[C@@]1(C(=O)O)CCCN1; tBuAla = CC(C)(C)C[C@H](N)C(=O)O; Gly(cBu) = N[C@H](C(=O)O)C1CCC1; 3Thi = N[C@@H](Cc1ccsc1)C(=O)O; PyrS2(4) = not defined here; BztA″ = aromatic residue; CyLeu = not defined here; dGlnR = not defined here; GlnR = not defined here; sAla = not defined here; Cpg = not defined here; PL3 = not defined here; B5 = not defined here; Aib = CC(C)(N)C(=O)O

Sequence of beta-catenin (human) (B6V8E6 146-665 limits assumed): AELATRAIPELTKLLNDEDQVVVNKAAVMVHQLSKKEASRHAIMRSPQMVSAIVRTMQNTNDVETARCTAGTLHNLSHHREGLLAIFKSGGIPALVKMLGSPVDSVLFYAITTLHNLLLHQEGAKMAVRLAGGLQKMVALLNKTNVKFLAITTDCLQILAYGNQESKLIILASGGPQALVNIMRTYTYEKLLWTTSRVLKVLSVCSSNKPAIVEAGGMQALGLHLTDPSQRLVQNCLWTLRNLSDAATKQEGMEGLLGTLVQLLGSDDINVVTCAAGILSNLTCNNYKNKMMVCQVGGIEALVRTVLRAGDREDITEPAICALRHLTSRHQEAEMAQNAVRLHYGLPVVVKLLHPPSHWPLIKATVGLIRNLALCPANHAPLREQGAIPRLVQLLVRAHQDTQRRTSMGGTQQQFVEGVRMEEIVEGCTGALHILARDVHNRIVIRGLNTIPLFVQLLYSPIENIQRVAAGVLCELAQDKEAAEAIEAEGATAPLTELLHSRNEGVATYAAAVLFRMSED

The first test has as its target beta-catenin (human). Nature of the test: cell-based or functional assay.
B1 displayed a NanoBRET Abs IC50 (bin >3.0 uM) of less than 10000 nM.

As for B2, the NanoBRET Abs IC50 (bin >1.5 uM) was less than 3000 nM.

For B3, the NanoBRET Abs IC50 (bin >1.5 uM) was less than 3000 nM.

In turn, B4 gave a NanoBRET Abs IC50 greater than 10000 nM.

The molecule B5 returned a NanoBRET Abs IC50 (bin >3.0 uM) of less than 10000 nM.

B6 registered a NanoBRET Abs IC50 greater than 10000 nM.

For the molecule B7, the NanoBRET Abs IC50 (bin >3.0 uM) is less than 10000 nM.

Take B8: the NanoBRET Abs IC50 (bin >1.5 uM) is less than 3000 nM.

For the molecule B9, the NanoBRET Abs IC50 (bin >3.0 uM) is less than 10000 nM.

B10 registered a NanoBRET Abs IC50 of less than 1500 nM.

For Ac-[αAllylPro]D[tBuAla][B5″]DDAAF[TriAzLys][PyrS2″][3Thi][Bta][Abu(4-yl)]-NH2 (triazole 10-14; also: PL3-B5 and PyrS2 links not placed) [I-17], the NanoBRET Abs IC50 was greater than 10000 nM.

As for B11, the NanoBRET Abs IC50 (bin >3.0 uM) was less than 10000 nM.

For the molecule B12, the NanoBRET Abs IC50 (bin >3.0 uM) is less than 10000 nM.

B13: the NanoBRET Abs IC50 is greater than 10000 nM.

In turn, B14 had a NanoBRET Abs IC50 (bin >1.5 uM) of less than 3000 nM.

For the molecule B15, the NanoBRET Abs IC50 was greater than 10000 nM.

Molecule B16 displayed a NanoBRET Abs IC50 greater than 10000 nM.

In turn, B17 showed a NanoBRET Abs IC50 (bin >1.5 uM) of less than 3000 nM.

In turn, B18 came in with a NanoBRET Abs IC50 (bin >1.5 uM) of less than 3000 nM.

Turning to B19, the NanoBRET Abs IC50 is greater than 10000 nM.

A further test has as its target beta-catenin (human). Nature of the test: fluorescence polarization.
Molecule B1 gave an IC50 of less than 50 nM.

For the molecule B2, the IC50 was less than 50 nM.

Molecule B3 gave an IC50 of less than 50 nM.

As for B4, the IC50 is less than 50 nM.

B5 showed an IC50 of less than 50 nM.

Turning to B6, the IC50 is greater than 1000 nM.

The molecule B7 showed an IC50 of less than 50 nM.

For B8, the IC50 is less than 50 nM.

Consider B9, for which the IC50 was less than 50 nM.

With B10, the IC50 was less than 50 nM.

The molecule Ac-[αAllylPro]D[tBuAla][B5″]DDAAF[TriAzLys][PyrS2″][3Thi][Bta][Abu(4-yl)]-NH2 (triazole 10-14; also: PL3-B5 and PyrS2 links not placed) [I-17] came in with an IC50 of less than 50 nM.

In turn, B11 gave an IC50 of less than 50 nM.

Regarding B12, the concentration for half-maximal inhibition (IC50) is less than 50 nM.

B13 returned an IC50 of less than 50 nM.

B14 returned an IC50 of less than 50 nM.

On to B15, for which the IC50 was less than 50 nM.

B16: the IC50 is less than 50 nM.

B17 came in with an IC50 of less than 50 nM.

For the molecule B18, the IC50 is less than 50 nM.

B19 yielded an IC50 of less than 50 nM.
